From publication PMC2119460

Biological target: H-2Db class I MHC molecule on the surface of RMA-S cells (mouse (endogenous in RMA-S))

Substance: influenza NP (365-380) peptide
- fold increase in H-2Db reactivity (mAb 28.14.8) after peptide treatment: 2 fold
